Reference: patent US20180169261A1 (Seagen, published 2018)
Values belong to the binder of their own block, whether it stands above or below them.

Columns and labels:
cynomolgus CD123 = target: T1, cynomolgus CD123 (cynomolgus); assay: saturation binding of AlexaFluor-488 labeled mAb, flow cytometry on HEK293F cells expressing cyno CD123; apparent Kd
T1 construct: whole, on cells; Expressed on transfected HEK-293F cells; also called cyno CD123
Procedure: (§1) One hundred thousand CD123-positive cells (HEK-293F cells transfected to express human or cynomologus CD123) were transferred to 96-well plates. […] Cells were pelleted by centrifugation, washed 3 times with a PBS+1% BSA solution, and resuspended in 125 μL of PBS+1% BSA. Fluorescence was analyzed using a flow cytometer, and the percent of saturated fluorescent signal was used to determine percent bound and to subsequently calculate apparent Kd.

human CD123 [1] = target: T2, human CD123 (human, UniProt P26951 19-378); assay: competition with 5 nM AlexaFluor-488 m7G3, flow cytometry on Molm-13 AML cells
T2 construct: whole, on cells; also called IL-3R alpha; IL3R-alpha
T2 sequence (P26951 19-378): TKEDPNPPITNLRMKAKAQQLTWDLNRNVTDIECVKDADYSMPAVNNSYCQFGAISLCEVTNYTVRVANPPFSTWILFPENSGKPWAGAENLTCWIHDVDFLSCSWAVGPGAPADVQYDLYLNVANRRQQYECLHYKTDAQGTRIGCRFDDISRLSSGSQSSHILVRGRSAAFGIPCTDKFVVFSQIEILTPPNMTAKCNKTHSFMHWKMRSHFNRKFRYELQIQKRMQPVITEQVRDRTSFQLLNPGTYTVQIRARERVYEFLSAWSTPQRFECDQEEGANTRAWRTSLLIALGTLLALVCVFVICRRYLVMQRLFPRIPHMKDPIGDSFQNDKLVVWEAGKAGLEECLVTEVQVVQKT
Procedure: Cells were centrifuged, washed 3 times with PBS, and resuspended in 125 μL of a PBS+1% BSA solution. Fluorescence was analyzed using a flow cytometer, and the percent of saturated fluorescent signal was used to determine percent labeled 7G3 mAb bound. The EC50 was extrapolated by fitting the data to a sigmoidal dose-response curve with variable slope.

human CD123 [2] = target: T2, human CD123; assay: saturation binding of AlexaFluor-488 labeled mAb, flow cytometry on HEK293F cells expressing human CD123; apparent Kd
Procedure: as §1

human CD123 [3] = target: T2, human CD123; assay: cell-based or functional assay
human CD123 [4] = target: T2, human CD123; assay: cell-based or functional assay; remark: listed apart in the source
human CD123 [5] = target: T2, human CD123; assay: cell-based or functional assay; remark: listed apart in the source

Kd (cynomolgus CD123): 4.6 nM
EC50 (human CD123 [1]): 4.3 nM
Kd (human CD123 [2]): 2.7 nM
B1: murine 7G3 antibody (antibody, V domains shown)
VH: EVQLQQSGPELVKPGASVKMSCKASGYTFTDYYMKWVKQSHGKSLEWIGDIIPSNGATFYNQKFKGKATLTVDRSSSTAYMHLNSLTSEDSAVYYCTRSHLLRASWFAYWGQGTLVTVSA
VL: DFVMTQSPSSLTVTAGEKVTMSCKSSQSLLNSGNQKNYLTWYLQKPGQPPKLLIYWASTRESGVPDRFTGSGSGTDFTLTISSVQAEDLAVYYCQNDYSYPYTFGGGTKLEIKR
notes: Murine monoclonal antibody; also called m7G3

Kd (cynomolgus CD123): 4.7 nM
EC50 (human CD123 [1]): 2 nM
Kd (human CD123 [2]): 2.7 nM
B2: Chimeric 7G3 (antibody, V domains shown)
VH: EVQLQQSGPELVKPGASVKMSCKASGYTFTDYYMKWVKQSHGKSLEWIGDIIPSNGATFYNQKFKGKATLTVDRSSSTAYMHLNSLTSEDSAVYYCTRSHLLRASWFAYWGQGTLVTVSA
VL: DFVMTQSPSSLTVTAGEKVTMSCKSSQSLLNSGNQKNYLTWYLQKPGQPPKLLIYWASTRESGVPDRFTGSGSGTDFTLTISSVQAEDLAVYYCQNDYSYPYTFGGGTKLEIKR

B3: h7G3EC-SGD-1910 (antibody, human IgG1, kappa, V domains shown)
VH: QVQLVQSGAEVKKPGASVKMSCKASGYTFTDYYMKWVKQAPGQGLEWIGDIIPSNGATFYNQKFKGKATLTVDRSISTAYMHLNRLRSDDTAVYYCTRSHLLRASWFAYWGQGTLVTVSS
VL: DFVMTQSPDSLAVSLGERATINCKSSQSLLNSGNQKNYLTWYLQKPGQPPKLLIYWASTRESGVPDRFSGSGSGTDFTLTISSLQAEDVAVYYCQNDYSYPYTFGQGTKLEIKR
modifications: SGD-1910 PBD drug-linker on the thiol of Cys 239 (EU index); average drug load about 2 per antibody
mean IC50, in vitro cytotoxicity, responsive CD123-positive AML cell lines (human CD123 [3]): 7 ng/mL
mean IC50, in vitro cytotoxicity, responsive primary AML samples (human CD123 [3]): 1 ng/mL
IC50, in vitro cytotoxicity (Annexin V/PI flow cytometry), primary AML sample FH016 (human CD123 [4]): 1.4 ng/mL
IC50, in vitro cytotoxicity (Annexin V/PI flow cytometry), primary AML sample FH018 (human CD123 [4]): 0.12 ng/mL
IC50, in vitro cytotoxicity (Annexin V/PI flow cytometry), primary AML sample FH019 (human CD123 [4]): > 2.5 ng/mL
IC50, in vitro cytotoxicity (Annexin V/PI flow cytometry), primary AML sample FH020 (human CD123 [4]): 2.5 ng/mL
IC50, in vitro cytotoxicity (Annexin V/PI flow cytometry), primary AML sample FH021 (human CD123 [4]): 1.6 ng/mL
IC50, in vitro cytotoxicity (Annexin V/PI flow cytometry), primary AML sample FH022 (human CD123 [4]): 0.56 ng/mL
IC50, in vitro cytotoxicity (Annexin V/PI flow cytometry), primary AML sample FH023 (human CD123 [4]): 0.06 ng/mL
IC50, in vitro cytotoxicity (Annexin V/PI flow cytometry), primary AML sample FH024 (human CD123 [4]): 2 ng/mL
IC50, in vitro cytotoxicity (Annexin V/PI flow cytometry), primary AML sample FH025 (human CD123 [4]): 6.5 ng/mL
IC50, in vitro cytotoxicity (Annexin V/PI flow cytometry), primary AML sample FH026 (human CD123 [4]): 0.22 ng/mL
IC50, in vitro cytotoxicity (Annexin V/PI flow cytometry), primary AML sample FH027 (human CD123 [4]): > 2.5 ng/mL
IC50, in vitro cytotoxicity (Annexin V/PI flow cytometry), primary AML sample FH028 (human CD123 [4]): 2 ng/mL
IC50, in vitro cytotoxicity (Annexin V/PI flow cytometry), primary AML sample FH029 (human CD123 [4]): 0.46 ng/mL
IC50, in vitro cytotoxicity (Annexin V/PI flow cytometry), primary AML sample FH034 (human CD123 [4]): 0.22 ng/mL
IC50, in vitro cytotoxicity (Annexin V/PI flow cytometry), primary AML sample FH036 (human CD123 [4]): 0.16 ng/mL
IC50, in vitro cytotoxicity (Annexin V/PI flow cytometry), primary AML sample FH037 (human CD123 [4]): 0.68 ng/mL
IC50, in vitro cytotoxicity (Annexin V/PI flow cytometry), primary AML sample FH038 (human CD123 [4]): 0.18 ng/mL
IC50, in vitro cytotoxicity (CelltiterGlo, 96 h), GDM-1 AML cells (human CD123 [5]): 3.5 ng/mL
IC50, in vitro cytotoxicity (CelltiterGlo, 96 h), HNT-34 AML cells (human CD123 [5]): 0.35 ng/mL
IC50, in vitro cytotoxicity (CelltiterGlo, 96 h), KG1-INV AML cells (human CD123 [5]): 0.6 ng/mL
IC50, in vitro cytotoxicity (CelltiterGlo, 96 h), KG-1 AML cells (human CD123 [5]): 0.8 ng/mL
IC50, in vitro cytotoxicity (CelltiterGlo, 96 h), Kasumi-1 AML cells (human CD123 [5]): 1 ng/mL
IC50, in vitro cytotoxicity (CelltiterGlo, 96 h), MV4-11 AML cells (human CD123 [5]): 0.02 ng/mL
IC50, in vitro cytotoxicity (CelltiterGlo, 96 h), Molm-13 AML cells (human CD123 [5]): 0.08 ng/mL
IC50, in vitro cytotoxicity (CelltiterGlo, 96 h), NOMO-1 AML cells (human CD123 [5]): 38 ng/mL
IC50, in vitro cytotoxicity (CelltiterGlo, 96 h), SKM-1 AML cells (human CD123 [5]): 2.5 ng/mL
IC50, in vitro cytotoxicity (CelltiterGlo, 96 h), TF1a AML cells (human CD123 [5]): > 1000 ng/mL
IC50, in vitro cytotoxicity (CelltiterGlo, 96 h), THP-1 AML cells (human CD123 [5]): 24 ng/mL

Kd (cynomolgus CD123): 5.3 nM
Kd (human CD123 [2]): 2.7 nM
B4: h7G3, G1 (antibody, V domains shown)
VH: QVQLVQSGAEVKKPGASVKMSCKASGYTFTDYYMKWVKQAPGQGLEWIGDIIPSNGATFYNQKFKGKATLTVDRSISTAYMHLNRLRSDDTAVYYCTRSHLLRASWFAYWGQGTLVTVSS
VL: DFVMTQSPDSLAVSLGERATINCKSSQSLLNSGNQKNYLTWYLQKPGQPPKLLIYWASTRESGVPDRFSGSGSGTDFTLTISSLQAEDVAVYYCQNDYSYPYTFGQGTKLEIKR
notes: also called humanized 7G3, IgG1

EC50 (human CD123 [1]): 2.6 nM
B5: HCLA (antibody, V domains shown)
VH: QVQLVQSGAEVKKPGASVKMSCKASGYTFTDYYMKWVKQAPGQGLEWIGDIIPSNGATFYNQKFKGKATLTVDRSISTAYMHLNRLRSDDTAVYYCTRSHLLRASWFAYWGQGTLVTVSS
VL: DFVMTQSPDSLAVSLGERATINCKSSQSLLNSGNQKNYLTWYLQKPGQPPKLLIYWASTRESGVPDRFSGSGSGTDFTLTISSLQAEDVAVYYCQNDYSYPYTFGQGTKLEIKR
notes: also called lead humanized 7G3 antibody; vHC/vLA

Kd (cynomolgus CD123): 6.6 nM
Kd (human CD123 [2]): 2.7 nM
B6: h7G3EC (antibody, human IgG1, kappa, V domains shown)
VH: QVQLVQSGAEVKKPGASVKMSCKASGYTFTDYYMKWVKQAPGQGLEWIGDIIPSNGATFYNQKFKGKATLTVDRSISTAYMHLNRLRSDDTAVYYCTRSHLLRASWFAYWGQGTLVTVSS
VL: DFVMTQSPDSLAVSLGERATINCKSSQSLLNSGNQKNYLTWYLQKPGQPPKLLIYWASTRESGVPDRFSGSGSGTDFTLTISSLQAEDVAVYYCQNDYSYPYTFGQGTKLEIKR
notes: EC means cysteine at position 239 (EU index) of the IgG1 heavy chain; Unconjugated antibody; also called humanized 7G3 with S239C
